From a protein production outcome set (Wang et al. 2014)

Test: label from the status in PepcDB records

Sequence | protein production
MPLTNHTPEDRVQDIFDHIAPQYDQMNSVISLGTHHWWRQRVMQAMTLHAGDFALDVCCGTGDWTIALAQAVGPAGHVVGFDFSGVMLQHATTKVRQAQLDDRITLRQGDAMQLPYPDNYFNVVTIGFGLRNVPDATQVLREMARVVKPGGQVVCLETSQPTNPLVHAGWQVYFGHVVPLMGRLAHHYQAYNYLQSSTHHFVSAKELSRLFTAAGLTQVHYDLFNLGAAAVHWGRKPYLEHHHHHH | not failed
MILAIDLGTSGAKAAIIDSAGAVHEQTFVPYSTTKLPNGGVEQDPMQWVSAARQAVTRLPRSYSVVSFTGQMQDLICLDRAGRPLGQALLYNDARAAAEAARLNTVVPEWKDITGNRQTATSTAAMWLRLMEQSD | failed
MKELLKLDFFIQKKYIKSSIIVFLFLGITFALTQGMNYLYTMGTFIVFYLTIIPIEVERKSKFNIYLNSLPNKKSNYIYSKYLSTLIYIIVVNLFLYLFCTILGVISGSDFTLTLRAILPNIIVQLFYVSLTLPVYMIISHKFYRVVNIIFTILIMMISSILFNSLENENLQVLFNITNGVYGLAFGILALIISLIVSLNIYKKSEVS | failed
MITQNIESLNNIAKIQHAANTDYLTDLANRRAFFRSAESRIKEYINKKVPYCLAMIDVDFFKKVNDTYGHDSGDQVLKVIALYMRKHFGAGLTARLGGEEFAVLLHGLDADYLHNKLDDFRREIAVSSIPAGDTSISITLSLGVVFDSEDELSKQMNEADNALYAAKENGRNQIVVFGAELDDLEHHHHHH | not failed
MAEDQTVLAIDIGGSHVKIGLSTDGEERKVESGKTMTGPEMVAAVTAMAKDMTYDVIAMGYPGPVVHNKPLREPVNLGEGWVGYDYEGAFGRPVRIVNDALMQAIGSYNGGRMLFLGLGTGLGAAMIVENVAQPMEIAHLPYRKGKTYEHYVSEAYREKKGNAKWQKRVQDVVERLSAALEPDEVVIGGGNVERLENLPPKCRRGDNAMAFEGGFRLWKNADLIV | not failed
MISVAQYLEAATRPNTERAYAAATRHFEIEWGGHLPTTAEQVARYLAAYAGQLALNTLRHRLAALAQWHQAHGFADPTRAPVVRKVLKGIQTVHPSQEKRATPLQLTQLGQVVDWLDGAATAAGTRDDAAGRLRHMRDRAFVLLGFWRGFRGDELVRLQVQDLELVAGEGMTCFLPHSKSDRQHAGTTYKVPALSRWCPVAATMAWVAAAALHEGPLFRAVNQWGGIAAAPLHPNSLVPLLRRIFREAGLSSPNDYSGHSLRRGFAGWANANGWDVKALMEYVGWRDVHSAMRYLDGADPFARQRIEASVSPATPPLLALAAPAPDPVPTTAVEATVTLTRFNSRVRGLAKAHRLIEQICLQPHQAQRLNADGTRYRLAIAAVDEAAFEETIAMLLDEMHRIADNHQCFLAVALRDEAGGRHWD | failed
MDDQGCPRCKTTKYRNPSLKLMVNVCGHTLCESCVDLLFVRGAGNCPECGTPLRKSNFRVQLFEDPTVDKEVEIRKKVLKIYNKREEDFPSLREYNDFLEEVEEIVFNLTNNVDLDNTKKKMEIYQKENKDVIQKNKLKLTREQEELEEALEVERQENEQRRLFIQKEEQLQQILKRKNKQAFLDELESSDLPVALLLAQHKDRSTQLEMQLEKPKPVKPVTFSTGIKMGQHISLAPIHKLEEALYEYQPLQIETYGPHVPELEMLGRLGYLNHVRAASPQDLAGGYTSSLACHRALQDAFSGLFWQPS | not failed
MSGFSPELIDYLEGKISFEEFERRREERKTREKKSLQEKGKLSAEENPDDSEVPSSSGINSTKSQDKDVNEGETSDGVRKSVHKVFASMLGENEDDEEEEEEEEEEEEEEETPEQPTAGDVFVLEMVLNRETKKMMKEKRPRSKLPRALRGLMGEANIRFARGEREEAILMCMEIIRQAPLAYEPFSTLAMIYEDQGDMEKSLQFELIAAHLNPSDTEEWVRLAEMSLEQDNIKQAIFCYTKALKYEPTNVRYLWERSSLYEQMGDHKMAMDGYRRILNLLSPSDGERFMQLARDMAKSYYEANDVTSAINIIDEAFSKHQGLVSMEDVNIAAELYISNKQYDKALEIITDFSGIVLEKKTSEEGTSEENKAPENVTCTIPDGVPIDITVKLMVCLVHLNILEPLNPLLTTLVEQNPEDMGDLYLDVAEAFLDVGEYNSALPLLSALVCSERYNLAVVWLRHAECLKALGYMERAAESYGKVVDLAPLHLDARISLSTLQQQLGQPEKALEALEPMYDPDTLAQDANAAQQELKLLLHRSTLLFSQGKMYGYVDTLLTMLAMLLKVAMNRAQVCLISSSKSGERHLYLIKVSRDKISDSNDQESANCDAKAIFAVLTSVLTKDDWWNLLLKAIYSLCDLSRFQEAELLVDSSLEYYSFYDDRQKRKELEYFGLSAAILDKNFRKAYNYIRIMVMENVNKPQLWNIFNQVTMHSQDVRHHRFCLRLMLKNPENHALCVLNGHNAFVSGSFKHALGQYVQAFRTHPDEPLYSFCIGLTFIHMASQKYVLRRHALIVQGFSFLNRYLSLRGPCQESFYNLGRGLHQLGLIHLAIHYYQKALELPPLVVEGIELDQLDLRRDIAYNLSLIYQSSGNTGMAQTLLYTYCSI | failed
GRARVKVEGVFYNPRMRFCRDLDMLVFATMDSKEYFDALSASGIRGIRAALEAGKKAVFNDVSPKAVKVIEENLRENGVSGEVINGDAAAVMRQRAFEHIDIDPFGSPAPFMDSACFSAKRYLSVTATDTAALCGSATNSGLKKYGAFAVKTDVYHEVGLRMLIGFVVREATKYEKALFPLISWVREHYYRVHFKIKKSTAMSAKVYEKMGYLAYCSTCLRKKVLGMGEGAERCECGGKFSLIGPIWLGELKQRDFAEKVAEKAEGKLRAFLEKILAEIDAPTAYSLPALAKIHSLTLPPTDVVVEELKKLGYEASRTHYCGFCVKTDADRDVVVKILRSRK | failed
MTDTTQRIFLSYAGPDQAWAEWVGWQLQQAGHQVELDRWHWRTGDDFVQKMNLALGKADAVVALFSRHYFEPKRWTREEWSAAVALRGRLVPVAIELLNDDDIPALLAGTLRTDVHGLDEAAATSALLEAVHGPVPPTGPVDFPGAASADAPTAPDAQRPRLPSSVGLPEVWNVRRRNPDFSGRETVMGQLRTGLLSGRQAVVQALHGMGGIGKTQIALEYAHRFASQYDLVWWVDAEQADQLPVRYTELADRLGVAKSDAGSEPNARALLQHLRTRHRWLLVLDNAEHPDQIEPWLPEGPGHVLITSRNPDWHGIAHQSDLDVFTRTDSLAYLKGRISGMTTEHADLLAQDLGDLPLALAQASGVLRSGMTLDRYRRLLTTDTARLLQESDVRDHPAPLAATVGIAVTRLADDGHADAVALLRLGAFLGPEPIPTAWLETARPRLATIPGDPDDPMWLRNALQPLGRFGLARTDYDAFQIHRLTQAILRTQTGPDPVVAIRDDVTAVLAAVDPGDPRSPADWPAWASLTAHLTAPHVTTALAHQAALRATFSKAAHFLICSGLPRAAHDLSAALHQAWSTDLGPDHPDTLTCAQFLGHATVDLGDYAKGRLIIEDTLVRRRRVLGEDHPDTLRSANDTSTNLSLLGERVEARRMHEDVLARRRRVLGEDHPDTLTSAGNLATILNKSGEYVEARRMQEDVLARRRRVLGEDHPDTLTSAHNLAGLLNSLGEHAESRRMQEDVLARRGLVLGEDHPDTLSSASNLATSLNSLGEHAESRRMHEDVLARRGLVLGQDHPDTLSSANKLATSLNGLGEHAEARRMHEDVLARRGVVLGQDHPSTLASAGNLATTLNSLGEHVEAHRMQEDVLARCRRVLGQDHPDTLTSASNLARTLHTLRQYSEAAELLKEVRASYVRHFGAKHPKTELATRNLATVLIAMGKTHEAQQLTGRKSDKGKRRFGRKRR | failed
MDDLIRLLEEMGIPFAYDHFAEGESPDPPFICYLLPQSDNFSADGKVYLKVSSVNIELYTDCKDLSVEQKLEAVLDTHGIFYDKTKVWIESEKLYEVLYSFEMEVLEHHHHHH | failed
MSDWTDGYVAEIDYTHGFYRELTPAHLRFCLLSRGLRAPEEDAGVSYCELGFGQGVTLNIVAATHPLASVWGTDFNPSHAAAARQLSLDGGTANTAFGDDSFEEFLAREDLPTFDFIVLHGIYSWISAENRAVIGRFLRRRLKVGGVVYISYNTLPGWAAIMPLRALMIDHAKAERAGMTERVDKALAFARTLAEGKAGYFTANPAVAPRLEKMATMSRNYLAHEYFNRDWTPLYHADVVRELTAAKLSFAASAHVTDLIDVVALSAPGREMLAAVNDPLFRETLRDYIVNQQFRRDIFTRGALRLTPLEQIEGLRAQRLALIVPRATIPEKATFPIGTTDLKPEIYGPFFDRLDKGPITLADLAAAEPALAPLPLATLHQAALVAISQGWVAPCPEAAGEGARRKATKRFNAAVLERARRSADLTVLASPVLGGGLGVDRIQQLFLLARAEKHPDPASFVWGILSSQGQRLVKEGKPLEDVDQNMAELRLRAQTFTDSFLPLYDRLGIV | failed
